Test [1] addresses SARS-CoV-2 Omicron (BA.1) Spike (pCAGGS-SARS-CoV-2 BA.1 Spike) (UniProt P0DTC2). The following applies: parent: est. 1.0; read off a plot.
In test [2] the target is SARS-CoV-2 Wuhan-1 Spike (S), C-terminal 6xHis (pcDNA5) (UniProt P0DTC2). To be noted: parent: est. 1.0; read off a plot.

Experimental findings from PMC10798645 are described below.

With “HA-tagged full-length BST2 (pcDNA5) (from UniProt Q10589) EC2Ala”, the results for the ratio to parent in test [1] and in test [2] were 1 and 0.74, respectively.
